Laboratory results as given in article PMC12394722, “Regulatory role of the N-terminal intrinsically disordered region of the DEAD-box RNA helicase DDX3X in selective RNA recognition”.

Tests used:
MBP-FL DDX3X [1] = target: T1, MBP-FL DDX3X (human, UniProt O00571 1-662); assay: EMSA; little to no shift; 1 mM ATP-Mg; EMSA: 20 mM K-phosphate pH 7.0, 125 mM KCl, 1 mM DTT, 0.005% Tween-20, 10% glycerol (1 mM ATP-Mg for MBP-FL/Core-C), gel at room temperature; ITC: 20 mM K-phosphate pH 7.0, 50 mM KCl, 25 C; NMR: 200 mM KCl (also 120 mM), 10 C, 50 uM; details: protein: recombinant, tags: N-terminal His6-MBP
T1 sequence (O00571 whole entry): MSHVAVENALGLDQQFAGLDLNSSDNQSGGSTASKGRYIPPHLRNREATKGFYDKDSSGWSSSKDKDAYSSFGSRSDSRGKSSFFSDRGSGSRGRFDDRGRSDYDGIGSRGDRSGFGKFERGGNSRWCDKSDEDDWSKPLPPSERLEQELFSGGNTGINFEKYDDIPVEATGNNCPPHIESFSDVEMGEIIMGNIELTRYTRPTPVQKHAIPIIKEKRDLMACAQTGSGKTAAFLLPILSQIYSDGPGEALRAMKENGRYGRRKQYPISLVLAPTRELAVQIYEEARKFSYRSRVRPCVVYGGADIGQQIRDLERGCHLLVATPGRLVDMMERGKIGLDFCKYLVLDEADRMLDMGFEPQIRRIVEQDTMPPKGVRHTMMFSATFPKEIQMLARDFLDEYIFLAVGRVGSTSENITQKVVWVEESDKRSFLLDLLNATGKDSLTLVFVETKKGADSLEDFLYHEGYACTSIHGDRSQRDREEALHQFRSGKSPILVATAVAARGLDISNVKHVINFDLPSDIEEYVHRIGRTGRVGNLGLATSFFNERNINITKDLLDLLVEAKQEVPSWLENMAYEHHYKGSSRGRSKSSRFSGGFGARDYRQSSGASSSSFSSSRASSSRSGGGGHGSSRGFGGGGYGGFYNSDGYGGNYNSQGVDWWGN

DDX3X N-IDR [2] = target: T2, DDX3X N-IDR (human, UniProt O00571 1-132); assay: NMR; EMSA: 20 mM K-phosphate pH 7.0, 125 mM KCl, 1 mM DTT, 0.005% Tween-20, 10% glycerol (1 mM ATP-Mg for MBP-FL/Core-C), gel at room temperature; ITC: 20 mM K-phosphate pH 7.0, 50 mM KCl, 25 C; NMR: 200 mM KCl (also 120 mM), 10 C, 50 uM; details: protein: recombinant, tags: His6-SUMO tag cleaved (Ulp1)
T2 sequence (O00571 1-132): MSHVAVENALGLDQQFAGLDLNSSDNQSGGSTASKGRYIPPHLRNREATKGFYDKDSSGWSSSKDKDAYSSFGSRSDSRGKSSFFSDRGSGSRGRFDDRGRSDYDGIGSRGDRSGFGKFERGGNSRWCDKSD

DDX3X N-IDR [3] = target: T2, DDX3X N-IDR; assay: EMSA; 125 mM KCl; EMSA: 20 mM K-phosphate pH 7.0, 125 mM KCl, 1 mM DTT, 0.005% Tween-20, 10% glycerol (1 mM ATP-Mg for MBP-FL/Core-C), gel at room temperature; ITC: 20 mM K-phosphate pH 7.0, 50 mM KCl, 25 C; NMR: 200 mM KCl (also 120 mM), 10 C, 50 uM; details: protein: recombinant, tags: His6-SUMO tag cleaved (Ulp1)
MBP-Core-C DDX3X = MBP-Core-C DDX3X (human, UniProt O00571 132-662); assay: EMSA; 1 mM ATP-Mg; EMSA: 20 mM K-phosphate pH 7.0, 125 mM KCl, 1 mM DTT, 0.005% Tween-20, 10% glycerol (1 mM ATP-Mg for MBP-FL/Core-C), gel at room temperature; ITC: 20 mM K-phosphate pH 7.0, 50 mM KCl, 25 C; NMR: 200 mM KCl (also 120 mM), 10 C, 50 uM; details: protein: recombinant, tags: N-terminal His6-MBP, label: 5'-FAM
Chain of MBP-Core-C DDX3X (O00571 132-662): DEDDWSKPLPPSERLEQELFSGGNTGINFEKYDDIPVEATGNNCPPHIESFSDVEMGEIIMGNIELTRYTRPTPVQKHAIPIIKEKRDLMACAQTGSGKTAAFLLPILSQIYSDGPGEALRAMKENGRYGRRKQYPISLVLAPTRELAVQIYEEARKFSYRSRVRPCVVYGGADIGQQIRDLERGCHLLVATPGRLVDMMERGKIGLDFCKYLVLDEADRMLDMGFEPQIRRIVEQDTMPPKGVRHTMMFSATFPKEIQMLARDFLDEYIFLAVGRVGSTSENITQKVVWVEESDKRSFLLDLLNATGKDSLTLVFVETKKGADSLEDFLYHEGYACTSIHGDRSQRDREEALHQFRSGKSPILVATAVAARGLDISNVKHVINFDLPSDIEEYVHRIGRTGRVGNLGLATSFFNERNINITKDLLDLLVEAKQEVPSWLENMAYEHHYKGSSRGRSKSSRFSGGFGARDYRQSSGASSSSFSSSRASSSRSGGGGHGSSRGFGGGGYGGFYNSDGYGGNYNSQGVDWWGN

MBP-FL DDX3X [4] = target: T1, MBP-FL DDX3X; assay: as above; details: protein: recombinant, tags: N-terminal His6-MBP, label: 5'-FAM
RR-1 fragment [5] = target: T3, RR-1 fragment (human, UniProt O00571 31-61); assay: NMR; little to no change; EMSA: 20 mM K-phosphate pH 7.0, 125 mM KCl, 1 mM DTT, 0.005% Tween-20, 10% glycerol (1 mM ATP-Mg for MBP-FL/Core-C), gel at room temperature; ITC: 20 mM K-phosphate pH 7.0, 50 mM KCl, 25 C; NMR: 200 mM KCl (also 120 mM), 10 C, 50 uM; details: protein: recombinant, tags: His6-SUMO tag cleaved
T3 sequence (O00571 31-61): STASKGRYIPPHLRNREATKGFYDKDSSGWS

RR-3 fragment [6] = target: T4, RR-3 fragment (human, UniProt O00571 106-127); assay: as above; details: protein: recombinant, tags: His6-SUMO tag cleaved
T4 chain: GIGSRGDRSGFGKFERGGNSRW

RR-2 fragment [7] = target: T5, RR-2 fragment (human, UniProt O00571 73-102); assay: as above; details: protein: recombinant, tags: His6-SUMO tag cleaved
T5 sequence (O00571 73-102): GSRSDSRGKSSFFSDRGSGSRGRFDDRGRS

DDX3X N-IDR [8] = target: T2, DDX3X N-IDR; assay: NMR; 200 mM KCl; EMSA: 20 mM K-phosphate pH 7.0, 125 mM KCl, 1 mM DTT, 0.005% Tween-20, 10% glycerol (1 mM ATP-Mg for MBP-FL/Core-C), gel at room temperature; ITC: 20 mM K-phosphate pH 7.0, 50 mM KCl, 25 C; NMR: 200 mM KCl (also 120 mM), 10 C, 50 uM; details: protein: recombinant; tags: His6-SUMO tag cleaved (Ulp1); label: 5'-FAM in EMSA; G4, heterogeneous
RR-1 fragment [9] = target: T3, RR-1 fragment; assay: NMR; EMSA: 20 mM K-phosphate pH 7.0, 125 mM KCl, 1 mM DTT, 0.005% Tween-20, 10% glycerol (1 mM ATP-Mg for MBP-FL/Core-C), gel at room temperature; ITC: 20 mM K-phosphate pH 7.0, 50 mM KCl, 25 C; NMR: 200 mM KCl (also 120 mM), 10 C, 50 uM; details: protein: recombinant, tags: His6-SUMO tag cleaved
RR-2 fragment [10] = target: T5, RR-2 fragment; assay: as above; details: protein: recombinant, tags: His6-SUMO tag cleaved
DDX3X N-IDR [11] = target: T2, DDX3X N-IDR; assay: ITC; 50 mM KCl; EMSA: 20 mM K-phosphate pH 7.0, 125 mM KCl, 1 mM DTT, 0.005% Tween-20, 10% glycerol (1 mM ATP-Mg for MBP-FL/Core-C), gel at room temperature; ITC: 20 mM K-phosphate pH 7.0, 50 mM KCl, 25 C; NMR: 200 mM KCl (also 120 mM), 10 C, 50 uM; details: protein: recombinant; tags: His6-SUMO tag cleaved (Ulp1); G4 monomer
RR-3 fragment [12] = target: T4, RR-3 fragment; assay: NMR; smaller reduction than telomeric GQ; EMSA: 20 mM K-phosphate pH 7.0, 125 mM KCl, 1 mM DTT, 0.005% Tween-20, 10% glycerol (1 mM ATP-Mg for MBP-FL/Core-C), gel at room temperature; ITC: 20 mM K-phosphate pH 7.0, 50 mM KCl, 25 C; NMR: 200 mM KCl (also 120 mM), 10 C, 50 uM; details: protein: recombinant; tags: His6-SUMO tag cleaved; G4 monomer
DDX3X N-IDR [13] = target: T2, DDX3X N-IDR; assay: EMSA; little to no shift; 125 mM KCl; EMSA: 20 mM K-phosphate pH 7.0, 125 mM KCl, 1 mM DTT, 0.005% Tween-20, 10% glycerol (1 mM ATP-Mg for MBP-FL/Core-C), gel at room temperature; ITC: 20 mM K-phosphate pH 7.0, 50 mM KCl, 25 C; NMR: 200 mM KCl (also 120 mM), 10 C, 50 uM; details: protein: recombinant; tags: His6-SUMO tag cleaved (Ulp1); label: 3'-FAM
RR-3 fragment [14] = target: T4, RR-3 fragment; assay: NMR; EMSA: 20 mM K-phosphate pH 7.0, 125 mM KCl, 1 mM DTT, 0.005% Tween-20, 10% glycerol (1 mM ATP-Mg for MBP-FL/Core-C), gel at room temperature; ITC: 20 mM K-phosphate pH 7.0, 50 mM KCl, 25 C; NMR: 200 mM KCl (also 120 mM), 10 C, 50 uM; details: protein: recombinant; tags: His6-SUMO tag cleaved; parallel G4, dimer of 2 strands
DDX3X N-IDR [15] = target: T2, DDX3X N-IDR; assay: ITC; 50 mM KCl; dimer concentration; EMSA: 20 mM K-phosphate pH 7.0, 125 mM KCl, 1 mM DTT, 0.005% Tween-20, 10% glycerol (1 mM ATP-Mg for MBP-FL/Core-C), gel at room temperature; ITC: 20 mM K-phosphate pH 7.0, 50 mM KCl, 25 C; NMR: 200 mM KCl (also 120 mM), 10 C, 50 uM; details: protein: recombinant; tags: His6-SUMO tag cleaved (Ulp1); parallel G4, dimer of 2 strands
[16] = parallel G4, dimer of 2 strands

B1: FAM-14mer tetraloop (structured_RNA)
RNA: GGCACUUCGGUGCC
MBP-FL DDX3X [1]; label: 5'-FAM, hairpin
  binding result: no binding

B2: MITF 7-31 (ssRNA)
RNA: AUACCUUGUUUAUAGUACCUUCUCU
DDX3X N-IDR [2]; non-GQ
  binding result: no binding

B3: FAM-NRAS GQ RNA (structured_RNA)
RNA: UGUGGGAGGGGCGGGUCUGGGUGC
DDX3X N-IDR [3]; label: 5'-FAM, G4 monomer
  Kd: 54 ± 12 nM
MBP-Core-C DDX3X; G4 monomer
  Kd: 201 ± 5 nM
MBP-FL DDX3X [4]; G4 monomer
  Kd: 43 ± 4 nM

B4: GC-14mer dsRNA (NMR) (dsRNA)
RNA 1: GGGCGGGCCCGCCC
RNA 2: GGGCGGGCCCGCCC
RR-1 fragment [5]; blunt, self-complementary
  binding result: no binding
RR-3 fragment [6]; blunt, self-complementary
  binding result: no binding
RR-2 fragment [7]; blunt, self-complementary
  binding result: no binding

B5: ODC1 279-303 (structured_RNA)
RNA: GCUGACGGGCGCGGCGGGGGCGGCC
DDX3X N-IDR [8]
  binding result: binds

B6: FAM-NRAS mutant RNA (ssRNA)
RNA: UGUAGAAAGAGCAGAUCUAGAUGC
DDX3X N-IDR [3]; label: 5'-FAM, GQ abolished
  Kd: 6000 ± 800 nM
MBP-FL DDX3X [4]; GQ abolished
  Kd: 222 ± 9 nM

B7: NRAS GQ RNA (structured_RNA)
RNA: UGUGGGAGGGGCGGGUCUGGGUGC
RR-1 fragment [9]; G4 monomer
  binding result: binds
RR-2 fragment [10]; G4 monomer
  binding result: binds
DDX3X N-IDR [11]
  Kd: 1400 nM
RR-3 fragment [12]
  binding result: binds

B8: poly-U12 (ssRNA)
RNA: UUUUUUUUUUUU
DDX3X N-IDR [13]
  binding result: no binding
MBP-FL DDX3X [1]; label: 3'-FAM
  binding result: no binding

B9: RAC1 53-77 (structured_RNA)
RNA: GCGGAGGGCGAGGCGGCGUGGACAG
DDX3X N-IDR [3]; label: 5'-FAM in EMSA, G4
  Kd: 510 ± 80 nM

B10: telomeric GQ RNA (structured_RNA)
RNA: UAGGGUUAGGGU
RR-1 fragment [9]; [16]
  binding result: binds
RR-3 fragment [14]
  binding result: binds
RR-2 fragment [10]; [16]
  binding result: binds
DDX3X N-IDR [15]
  Kd: 3400 nM

B11: ODC1 150-174 (structured_RNA)
RNA: AGUAGGGAGCGGCGUGCCGUGGGGC
DDX3X N-IDR [3]; label: 5'-FAM in EMSA, G4, heterogeneous
  Kd: 1970 ± 230 nM

B12: MITF 62-86 (structured_RNA)
RNA: GAAAGUAGAGGGAGGGAUAGUCUAC
DDX3X N-IDR [2]; G4
  binding result: binds

B13: poly-U10 (ssRNA)
RNA: UUUUUUUUUU
RR-1 fragment [5]
  binding result: no binding
RR-3 fragment [6]
  binding result: no binding
RR-2 fragment [7]
  binding result: no binding

B14: FAM-telomeric GQ RNA (structured_RNA)
RNA: UAGGGUUAGGGU
DDX3X N-IDR [3]; label: 5'-FAM, parallel G4, dimer of 2 strands
  Kd: 1000 ± 200 nM
MBP-Core-C DDX3X; [16]
  Kd: 579 ± 69 nM
MBP-FL DDX3X [4]; [16]
  Kd: 54 ± 14 nM

B15: NRAS mutant RNA (ssRNA)
RNA: UGUAGAAAGAGCAGAUCUAGAUGC
RR-1 fragment [5]; GQ abolished
  binding result: no binding
RR-3 fragment [6]; GQ abolished
  binding result: no binding
RR-2 fragment [7]; GQ abolished
  binding result: no binding
